Assay [1] deals with human ES cells. The assay can be described thus: Study for addition-concentration of BMP signaling pathway-activating substance in cell cluster production (Experiment 7). It is filed as cell-based. The method, then: In Experiment 7, a study of cell cluster production efficiency was performed for concentration of the BMP signaling pathway-activating substance in step (2), using human ES cells. The same experimental manipulations as in Experiment 2 (see the upper section of FIG. 8) were performed, and the concentration of BMP4 in the medium in step (2) was set to 7 conditions of 0.025 nM, 0.1 nM, 0.25 nM, 0.5 nM, 1.5 nM, 5 nM, and addition-free control.
On day 28 after the start of suspension culturing, bright-field observation was performed with an inverted microscope.
In addition, evaluation was performed for the cell clusters formed by adding each concentration of BMP4 according to the following four stages: cell cluster in a form close to spherical, whose 80% or more of the entire circumference was covered with non-neural epithelial tissue part (Grade 1, example=FIG. 20A); cell cluster whose 40% to 80% of the entire circumference was covered with non-neural epithelial tissue part or cell cluster in a distorted form (Grade 2, example=FIG. 20B); cell cluster whose ratio of non-neural epithelial tissue parts in the surface of the cell cluster was 40% or less (Grade 3, example=FIG. 20C); and cell cluster in which no non-neural epithelial tissue part was formed (Grade 4, example=FIG. 20D). The evaluation was performed by bright-field observation with an inverted microscope. As a result, non-neural epithelial tissues were not observed under the culture condition without adding of BMP4, as shown in FIG. 20E. Under the culture conditions in which 0.5 nM or more BMP4 was added in step (2), the Grade 1 cell clusters in a form close to a sphere, whose 80% or more of the entire circumference was covered with the non-neural epithelial tissue parts, were formed with high efficiency.

Assay [2] concerns human iPS cells. The assay can be described thus: Study for time to add BMP signaling pathway-activating substance in cell cluster production (Experiment 11). The settings on record: observed day 13. The format is cell-based. On the procedure: In Experiment 11, study of cell cluster production efficiency was performed for time to add the BMP signaling pathway-activating substance, that is, the start time of step (2), by changing the time to add the BMP signaling pathway-activating substance from day 1 to day 6 after the start of suspension culturing, using human iPS cells. The experiments were performed in accordance with the procedures shown in the upper section of FIG. 25, and the same experimental manipulations as in Experiment 3 were performed except for those specifically indicated.
Maintenance-cultured human iPS cells were subjected to step (a), and then the human iPS cells dispersed into single cells were suspended into 100 μl of a serum-free medium in a non-cell-adhesive 96-well three-dimensional culture vessel (PrimeSurface 96 slit-well plate, MS-9096S, manufactured by Sumitomo Bakelite Co., Ltd.) to be 1×10^4 cells per well, and the cells were suspension-cultured under conditions of 37° C., 5% CO2. At the start of suspension culturing (day 0 after the start of suspension culturing, start of step (1)), Y27632 (final concentration 20 μM), IWP-2 (final concentration 2 μM) and SB-431542 (final concentration 1 μM) were added to the serum-free medium.
On any of days 1, 2, 3, 4, and 6 after the start of suspension culturing, a serum-free medium being free of Y27632 and containing IWP-2, SB-431542 and BMP4 was added at 100 μl per well (start of step (2)). BMP4 was added to the medium at 3 nM to be a final concentration in the well of 1.5 nM.
In addition, on day after the addition of a serum-free medium containing BMP4, the medium was half exchanged with a serum-free medium being free of Y27632 and BMP4 and containing SB-431542, K02288, FGF2, Heparin Sodium, and EGF (start of step (3c)). K02288, FGF2, Heparin Sodium, and EGF were added to the medium at 20 μM, 40 ng/ml, 20 μg/ml, and 40 ng/ml, respectively, to be final concentrations in the well were 10 μM, 20 ng/ml, 10 μg/ml, and 20 ng/ml. […]

B1: BMP4: BMP signaling pathway-activating substance, manufactured by R&D Systems (protein, UniProt P12644 293-408, looked up)
Bone morphogenetic protein 4: SPKHHSQRARKKNKNCRRHSLYVDFSDVGWNDWIVAPPGYQAFYCHGDCPFPLADHLNSTNHAIVQTLVNSVNSSIPKACCVPTELSAISMLYLDEYDKVVLKNYQEMVVEGCGCR
In the case of B1, the “quality evaluation grade of cell clusters (circumference covered with non-neural epithelial tissue part)” value in assay [1] (0.5 nM or more BMP4 added in step (2), day 28, formed with high efficiency) is recorded as “Grade 1 (cell cluster in a form close to spherical, whose 80% or more of the entire circumference was covered with non-neural epithelial tissue part)”. Besides, in assay [1] (all BMP4 concentrations (0.025 to 5 nM) in step (2), day 28 after start of suspension culturing, bright-field observation), the “diameter of spherical cell clusters formed” value is listed as “around 600 μm”. Besides, in assay [1] (day 28, bright-field observation), the “concentration of BMP4 added in step (2) at which Grade 1 cell clusters were formed with high efficiency” value was at least 0.5 nM. The “formation of non-neural epithelial tissue on the surface of the cell aggregate” value in assay [2] (BMP4 1.5 nM added on any of days 1, 2, and 3 after start of suspension culturing) is on record as “a non-neural epithelial tissue was formed on the surface of the cell aggregate”. For the same molecule, the “formation of cell aggregates having non-neural epithelial tissues on the surface with larger diameter” value in assay [2] (BMP4 1.5 nM added on day 2 after start of suspension culturing) is “most efficiently and stably formed”. For the same molecule, in assay [2] (BMP4 1.5 nM added on day 4 or 6 after start of suspension culturing), the “formation of non-neural epithelial tissue on the surface of the cell aggregates” value is recorded as “no formation of non-neural epithelial tissue was observed”.

The values above are taken from patent publication US20210308188A1, “CELL CLUSTER INCLUDING OLFACTORY NEURON OR PRECURSOR CELL THEREOF, AND METHOD FOR PRODUCING SAME” (SUMITOMO CHEMICAL COMPANY, LIMITED, priority 2018, published 2021).
